# B1: V3-1m (antibody, mouse IgG2a, V domains shown)
# VH: EVQLVESGGGLVQPGGSLRLSCAASGFTISSNSIHWVRQAPGKGLEWVAWITPSDGNTDYADSVKGRFTISADTSKNTAYLQMNSLRAEDTAVYYCARRVCYNRLGVCAGGMDYWGQGTLVTVSS
# VL: DIQMTQSPSSLSASVGDRVTITCRASQDVSTAVAWYQQKPGKAPKLLIYSASFLYSGVPSRFSGSGSGTDFTLTISSLQPEDFATYYCQQSRITPPTFGQGTKVEIKR
# B2: murine monoclonal antibody 2.1 (antibody, V domains shown)
# VH: EVQLQESGPSLVKPSQTLSLTCSVTGDSITRGYWNWIRKFPGNKLEFMGYINYSGTTYYNPSLKSRISITRDTSKNQYYLQLNSVTTEDTATYYCATPHTYGAMDYWGQGTTLTVSA
# VL: DIVLTQSPVSLAVSLGQRATISCRASESVDDYGISFMHWYQQKPGQPPKLLIYRASDLESGIPARFSGSGSGTDFTLTINPVETDDVAIYYCQQTSKDPWTFGGGT
# B3: murine monoclonal antibody 11G9 (antibody, V domains shown)
# VH: DVQLQESGPSLVKPSQTLSLTCSVTGDSITSGYWNWIRKFPGNKLEYMGYISYSGSTYYNPSLKSRISITRDTSKNQFYLQLLSVTTEDTATYYCAGLDGLYWYFDVWGAGTLVTVSS
# VL: DIVMTQTPLSLPVSLGDQASISCRSSQSLVHSNGNTYLHWYLQKPGQSPKLLIYKVSNRFSGVPDRFSGSGSGTDFTLKISRVEAEDLGVYFCSQSTHVPPFTFGSGT
# Assays:
# Experiment in all cases: shotgun alanine scan of phage-displayed BR3; F against wild type
# [1] = target: human BR3 displayed on phage, R30 alanine-scan mutant (human) (UniProt Q96RJ3)
# [2] = target: human BR3 displayed on phage, G36 alanine-scan mutant (human) (UniProt Q96RJ3)
# [3] = target: human BR3 displayed on phage, mutated at A22 in the alanine scan (human) (UniProt Q96RJ3)
binder,measurement,setting,value
B1,F value,[1],20
B2,F value,[2],14
B3,F value,[3],45
